Sequences and labels used below:
B1: Compound 79 (peptide)
peptide: Ac-SEFCI[Trp(1-Me)]QDW[Sar]EHRC[Sar]E-NH2
modifications: disulfide 4-14
SMILES: CC[C@H](C)[C@@H]1NC(=O)[C@@H](NC(=O)[C@H](Cc2ccccc2)NC(=O)[C@H](CCC(=O)O)NC(=O)[C@H](CO)NC(C)=O)CSSC[C@@H](C(=O)N(C)CC(=O)N[C@@H](CCC(=O)O)C(N)=O)NC(=O)[C@H](CCCNC(=N)N)NC(=O)[C@H](Cc2c[nH]cn2)NC(=O)[C@H](CCC(=O)O)NC(=O)CN(C)C(=O)[C@H](Cc2c[nH]c3ccccc23)NC(=O)[C@H](CC(=O)O)NC(=O)[C@H](CCC(N)=O)NC(=O)[C@H](Cc2cn(C)c3ccccc23)NC1=O
B2: Compound 80 (peptide)
peptide: Ac-EFCI[Trp(1-Me)]QDWGEHRC[Sar]EA-NH2
modifications: disulfide 3-13
SMILES: CC[C@H](C)[C@@H]1NC(=O)[C@@H](NC(=O)[C@H](Cc2ccccc2)NC(=O)[C@H](CCC(=O)O)NC(C)=O)CSSC[C@@H](C(=O)N(C)CC(=O)N[C@@H](CCC(=O)O)C(=O)N[C@@H](C)C(N)=O)NC(=O)[C@H](CCCNC(=N)N)NC(=O)[C@H](Cc2c[nH]cn2)NC(=O)[C@H](CCC(=O)O)NC(=O)CNC(=O)[C@H](Cc2c[nH]c3ccccc23)NC(=O)[C@H](CC(=O)O)NC(=O)[C@H](CCC(N)=O)NC(=O)[C@H](Cc2cn(C)c3ccccc23)NC1=O
B3: Compound 78 (peptide)
peptide: Ac-SEFCI[Trp(1-Me)]QDWGEHRC[Sar]E-NH2
modifications: disulfide 4-14
SMILES: CC[C@H](C)[C@@H]1NC(=O)[C@@H](NC(=O)[C@H](Cc2ccccc2)NC(=O)[C@H](CCC(=O)O)NC(=O)[C@H](CO)NC(C)=O)CSSC[C@@H](C(=O)N(C)CC(=O)N[C@@H](CCC(=O)O)C(N)=O)NC(=O)[C@H](CCCNC(=N)N)NC(=O)[C@H](Cc2c[nH]cn2)NC(=O)[C@H](CCC(=O)O)NC(=O)CNC(=O)[C@H](Cc2c[nH]c3ccccc23)NC(=O)[C@H](CC(=O)O)NC(=O)[C@H](CCC(N)=O)NC(=O)[C@H](Cc2cn(C)c3ccccc23)NC1=O
B4: Compound 77 (peptide)
peptide: Ac-SEFCI[Trp(1-Me)]QDW[Sar]EHRCTEA-NH2
modifications: disulfide 4-14
SMILES: CC[C@H](C)[C@@H]1NC(=O)[C@@H](NC(=O)[C@H](Cc2ccccc2)NC(=O)[C@H](CCC(=O)O)NC(=O)[C@H](CO)NC(C)=O)CSSC[C@@H](C(=O)N[C@H](C(=O)N[C@@H](CCC(=O)O)C(=O)N[C@@H](C)C(N)=O)[C@@H](C)O)NC(=O)[C@H](CCCNC(=N)N)NC(=O)[C@H](Cc2c[nH]cn2)NC(=O)[C@H](CCC(=O)O)NC(=O)CN(C)C(=O)[C@H](Cc2c[nH]c3ccccc23)NC(=O)[C@H](CC(=O)O)NC(=O)[C@H](CCC(N)=O)NC(=O)[C@H](Cc2cn(C)c3ccccc23)NC1=O
B5: Compound 70 (peptide)
peptide: Ac-EGSAYCI[Trp(1-Me)]QEWGEHRC[Sar]E-NH2
modifications: disulfide 6-16
SMILES: CC[C@H](C)[C@@H]1NC(=O)[C@@H](NC(=O)[C@H](Cc2ccc(O)cc2)NC(=O)[C@H](C)NC(=O)[C@H](CO)NC(=O)CNC(=O)[C@H](CCC(=O)O)NC(C)=O)CSSC[C@@H](C(=O)N(C)CC(=O)N[C@@H](CCC(=O)O)C(N)=O)NC(=O)[C@H](CCCNC(=N)N)NC(=O)[C@H](Cc2c[nH]cn2)NC(=O)[C@H](CCC(=O)O)NC(=O)CNC(=O)[C@H](Cc2c[nH]c3ccccc23)NC(=O)[C@H](CCC(=O)O)NC(=O)[C@H](CCC(N)=O)NC(=O)[C@H](Cc2cn(C)c3ccccc23)NC1=O
B6: Compound 76 (peptide)
peptide: Ac-SEFCI[Trp(1-Me)]QDW[Sar]EHRC[Sar]EA-NH2
modifications: disulfide 4-14
SMILES: CC[C@H](C)[C@@H]1NC(=O)[C@@H](NC(=O)[C@H](Cc2ccccc2)NC(=O)[C@H](CCC(=O)O)NC(=O)[C@H](CO)NC(C)=O)CSSC[C@@H](C(=O)N(C)CC(=O)N[C@@H](CCC(=O)O)C(=O)N[C@@H](C)C(N)=O)NC(=O)[C@H](CCCNC(=N)N)NC(=O)[C@H](Cc2c[nH]cn2)NC(=O)[C@H](CCC(=O)O)NC(=O)CN(C)C(=O)[C@H](Cc2c[nH]c3ccccc23)NC(=O)[C@H](CC(=O)O)NC(=O)[C@H](CCC(N)=O)NC(=O)[C@H](Cc2cn(C)c3ccccc23)NC1=O
B7: Compound 71 (peptide)
peptide: Ac-SEYCI[Trp(1-Me)]QDWGEHRC[Sar]EA-NH2
modifications: disulfide 4-14
SMILES: CC[C@H](C)[C@@H]1NC(=O)[C@@H](NC(=O)[C@H](Cc2ccc(O)cc2)NC(=O)[C@H](CCC(=O)O)NC(=O)[C@H](CO)NC(C)=O)CSSC[C@@H](C(=O)N(C)CC(=O)N[C@@H](CCC(=O)O)C(=O)N[C@@H](C)C(N)=O)NC(=O)[C@H](CCCNC(=N)N)NC(=O)[C@H](Cc2c[nH]cn2)NC(=O)[C@H](CCC(=O)O)NC(=O)CNC(=O)[C@H](Cc2c[nH]c3ccccc23)NC(=O)[C@H](CC(=O)O)NC(=O)[C@H](CCC(N)=O)NC(=O)[C@H](Cc2cn(C)c3ccccc23)NC1=O
B8: Compound 74 (peptide)
peptide: Ac-SEFCI[Trp(1-Me)]QDWGEHRC[Sar]GAES-NH2
modifications: disulfide 4-14
SMILES: CC[C@H](C)[C@@H]1NC(=O)[C@@H](NC(=O)[C@H](Cc2ccccc2)NC(=O)[C@H](CCC(=O)O)NC(=O)[C@H](CO)NC(C)=O)CSSC[C@@H](C(=O)N(C)CC(=O)NCC(=O)N[C@@H](C)C(=O)N[C@@H](CCC(=O)O)C(=O)N[C@@H](CO)C(N)=O)NC(=O)[C@H](CCCNC(=N)N)NC(=O)[C@H](Cc2c[nH]cn2)NC(=O)[C@H](CCC(=O)O)NC(=O)CNC(=O)[C@H](Cc2c[nH]c3ccccc23)NC(=O)[C@H](CC(=O)O)NC(=O)[C@H](CCC(N)=O)NC(=O)[C@H](Cc2cn(C)c3ccccc23)NC1=O
B9: Compound 72 (peptide)
peptide: Ac-FCI[Trp(1-Me)]QDW[Sar]EHRCTGAES-NH2
modifications: disulfide 2-12
SMILES: CC[C@H](C)[C@@H]1NC(=O)[C@@H](NC(=O)[C@H](Cc2ccccc2)NC(C)=O)CSSC[C@@H](C(=O)N[C@H](C(=O)NCC(=O)N[C@@H](C)C(=O)N[C@@H](CCC(=O)O)C(=O)N[C@@H](CO)C(N)=O)[C@@H](C)O)NC(=O)[C@H](CCCNC(=N)N)NC(=O)[C@H](Cc2c[nH]cn2)NC(=O)[C@H](CCC(=O)O)NC(=O)CN(C)C(=O)[C@H](Cc2c[nH]c3ccccc23)NC(=O)[C@H](CC(=O)O)NC(=O)[C@H](CCC(N)=O)NC(=O)[C@H](Cc2cn(C)c3ccccc23)NC1=O

Positions of bridges follow the written chain, without caps; N, C: chain ends. Non-standard residues stand in square brackets, D forms with d. Trp(1-Me) = Cn1cc(C[C@H](N)C(=O)O)c2ccccc21; Sar = CNCC(=O)O

Sequence of Human C3 (Complement tech cat #A113c) (P01024 23-1663 limits assumed): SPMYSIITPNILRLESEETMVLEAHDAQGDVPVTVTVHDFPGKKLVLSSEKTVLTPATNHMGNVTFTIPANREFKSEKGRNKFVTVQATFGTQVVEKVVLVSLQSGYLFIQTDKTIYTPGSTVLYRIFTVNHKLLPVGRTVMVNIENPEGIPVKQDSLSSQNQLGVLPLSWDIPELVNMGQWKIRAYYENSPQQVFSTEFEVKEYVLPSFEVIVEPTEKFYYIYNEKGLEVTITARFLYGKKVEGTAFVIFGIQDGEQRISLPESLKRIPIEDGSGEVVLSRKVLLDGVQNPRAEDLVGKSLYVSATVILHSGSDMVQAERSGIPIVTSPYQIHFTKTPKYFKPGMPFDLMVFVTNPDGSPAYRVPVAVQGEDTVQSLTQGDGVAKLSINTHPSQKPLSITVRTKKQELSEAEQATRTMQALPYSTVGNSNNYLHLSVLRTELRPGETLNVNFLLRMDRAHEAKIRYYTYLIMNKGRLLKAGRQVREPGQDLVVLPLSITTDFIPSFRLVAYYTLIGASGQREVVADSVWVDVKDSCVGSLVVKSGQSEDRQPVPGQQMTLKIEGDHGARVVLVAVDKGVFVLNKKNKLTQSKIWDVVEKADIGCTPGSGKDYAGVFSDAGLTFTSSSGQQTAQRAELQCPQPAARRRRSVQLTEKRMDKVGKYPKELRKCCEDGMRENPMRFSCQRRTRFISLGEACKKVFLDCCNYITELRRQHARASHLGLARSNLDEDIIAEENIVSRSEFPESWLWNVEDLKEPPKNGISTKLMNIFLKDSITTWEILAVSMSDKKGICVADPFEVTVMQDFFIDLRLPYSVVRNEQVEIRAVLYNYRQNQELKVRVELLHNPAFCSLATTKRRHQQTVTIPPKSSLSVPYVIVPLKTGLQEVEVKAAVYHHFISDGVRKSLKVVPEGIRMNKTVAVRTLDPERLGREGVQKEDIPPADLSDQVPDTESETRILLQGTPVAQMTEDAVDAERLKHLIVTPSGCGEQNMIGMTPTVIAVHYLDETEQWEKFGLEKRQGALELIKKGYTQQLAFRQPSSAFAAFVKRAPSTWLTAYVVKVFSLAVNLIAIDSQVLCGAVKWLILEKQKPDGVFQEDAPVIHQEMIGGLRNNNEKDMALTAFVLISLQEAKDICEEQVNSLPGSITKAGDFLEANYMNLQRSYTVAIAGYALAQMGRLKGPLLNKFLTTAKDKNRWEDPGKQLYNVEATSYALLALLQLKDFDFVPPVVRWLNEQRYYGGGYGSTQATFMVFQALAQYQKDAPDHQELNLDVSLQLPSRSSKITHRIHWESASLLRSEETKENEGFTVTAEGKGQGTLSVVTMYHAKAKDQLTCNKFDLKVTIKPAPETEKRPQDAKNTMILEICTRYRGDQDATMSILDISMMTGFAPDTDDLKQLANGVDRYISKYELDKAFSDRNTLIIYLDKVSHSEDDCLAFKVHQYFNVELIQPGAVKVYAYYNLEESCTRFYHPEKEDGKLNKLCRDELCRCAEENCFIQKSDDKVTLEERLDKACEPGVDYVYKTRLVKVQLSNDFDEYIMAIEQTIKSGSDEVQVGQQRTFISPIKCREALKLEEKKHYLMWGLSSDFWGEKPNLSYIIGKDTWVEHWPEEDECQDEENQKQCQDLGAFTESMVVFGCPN

This test has as its target Human C3 (Complement tech cat #A113c) (human, UniProt P01024 23-1663). Put plainly: cell-based or functional assay.
Regarding B1, the “inhibition of hemolysis IC50” value is < 100 nM.

For B2, the “inhibition of hemolysis IC50” value is < 100 nM.

Consider B3, for which the “inhibition of hemolysis IC50” value is < 100 nM.

Take B4: the “inhibition of hemolysis IC50” value was < 100 nM.

For the molecule B5, the “inhibition of hemolysis IC50” value is < 100 nM.

As for B6, the “inhibition of hemolysis IC50” value is < 100 nM.

As for B7, the “inhibition of hemolysis IC50” value was < 100 nM.

Take B8: the “inhibition of hemolysis IC50” value was < 100 nM.

On to B9, for which the “inhibition of hemolysis IC50” value was < 100 nM.

For the origin of these results see US11965039B2, “Compstatin analogues and their medical uses” (priority 2018, dated 2024).
